We go through one molecule from patent US9644034B2, “Anti-RSPO2 antibodies and uses thereof” (OncoMed Pharmaceuticals, Inc., priority 2011, dated 2017).

For one assay, the system named is PN7 tumors. The assay can be described thus: Serial transplantation of cells from treated PN7 tumors (tumorigenicity). It counts as in vivo, NOD-SCID mice. Conditions: 90 cells injected, 40 days growth with no treatment; vs control antibody. The procedure:
The PN7 tumors described above were processed to yield single cell suspensions. Mouse cells were depleted from the cell mixtures using biotinylated anti-H2K^d and anti-CD45 antibodies and streptavidin-conjugated magnetic beads. The remaining human tumor cells were serially transplanted into a new cohort of mice. 90 tumor cells from each treatment group were injected into the flanks of NOD-SCID mice (n=10 mice per group). Tumors were allowed to grow for 40 days with no treatment and tumor volumes were measured with electronic calipers.

For assay [1], the system named is β-catenin signaling induced by RSPO3. The assay can be described thus: TOPflash luciferase assay in HEK-293 cells, Wnt3a plus human RSPO3. It is filed as cell-based. Conditions: Wnt3a 5 ng/ml, RSPO3 10 ng/ml. The procedure:
(§1) HEK-293 cells were transfected with a 6×TCF-luciferase reporter vector (TOPflash, Millipore, Billerica, Mass.). After 24-48 hrs, the transfected HEK-293 cells were incubated with a combination of Wnt3a (5 ng/ml) and human RSPO2 (10 ng/ml, R&D BioSystems) or human RSPO3 (10 ng/ml, R&D BioSystems) in the presence of anti-RSPO2 antibodies 130M23, 130M24, 130M25, 130M26, 130M27, and 130M28. Cells were incubated with a combination of Wnt3a and RSPO, Wnt3a only or with no addition as controls. The cells were incubated for 16 hours and luciferase activity was measured using Steady-Glo® Luciferase Assay System according to the manufacturer's instructions (Promega, Madison, Wis.).

In the next assay the test system is β-catenin signaling. The assay can be described thus: Luciferase assay in STF-293 cells with LU2 cells, lung tumor cell-conditioned medium and Wnt3a-L cell-conditioned medium. It counts as cell-based, human. The procedure: Conditioned medium from human lung tumor LU2 cells was prepared as described in Example 3 and soluble LGR5-Fc was produced as described in Example 2.
STF-293 cells were incubated with LU2 cells plus 25% lung tumor cell-conditioned medium plus 25% Wnt3a-L cell-conditioned medium. Antibody 130M23 and soluble LGR5-Fc were added to the cells in 5-fold serially dilutions from 50 μg/ml to 0.0006 μg/ml. An irrelevant monoclonal antibody, similarly diluted, and a control Fc fusion protein (50 ug/ml) were used as negative controls. The cells were incubated for 20 hours and luciferase activity was measured using Steady-Glo® Luciferase Assay System according to the manufacturer's instructions (Promega, Madison, Wis.).

The test system of assay [2] is RSPO2-induced β-catenin signaling. The assay can be described thus: TOPflash luciferase assay in HEK-293 cells, Wnt3a plus human RSPO2. It counts as cell-based. Conditions: Wnt3a 5 ng/ml, RSPO2 10 ng/ml. The procedure:
as §1

For assay [3], the target named is T1, human RSPO2 (Homo sapiens, UniProt Q6UXX9).
T1 construct: followed by the furin-like domains of RSPO2 (aa 31-146); expressed in transfected cells; host or cells: HEK-293
T1 sequence (Q6UXX9 31-146): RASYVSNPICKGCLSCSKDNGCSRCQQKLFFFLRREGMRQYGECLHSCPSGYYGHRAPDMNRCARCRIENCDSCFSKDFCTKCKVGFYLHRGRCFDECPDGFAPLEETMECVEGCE
The assay can be described thus: FACS screening of hybridoma supernatants on HEK-293 cells expressing FLAG-RSPO2furin-CD4TM-GFP. It counts as binding. The text has this:
Antibodies were generated against recombinant human RSPO2 protein amino acids 22-205 (R&D Systems, Minneapolis, Minn.). Mice (n=3) were immunized with RSPO2 protein using standard techniques. Sera from individual mice were screened against RSPO2 approximately 70 days after initial immunization using FACS analysis. The animal with the highest antibody titer was selected for final antigen boost after which spleen cells were isolated for hybridoma production. SP2/0 cells were used as fusion partners for the mouse spleen cells. Hybridoma cells were plated at 1 cell per well in 96 well plates, and the supernatants were screened against human RSPO2 by FACS analysis.
As described in Example 5, for FACS screening of anti-RSPO2 antibodies a chimeric fusion protein enabling cell surface expression of the N-terminal furin-like domains of human RSPO2 was constructed. Similar to what is depicted in FIG. 5A for RSPO1, the RSPO2 fusion protein contains a N-terminal FLAG tag, followed by the furin-like domains of RSPO2 (aa 31-146) and fused to the transmembrane and intracellular domain of human CD4 and a C-terminal green fluorescent protein tag (FLAG-RSPO2furin-CD4TM-GFP).
HEK-293 cells were transfected with FLAG-RSPO2furin-CD4TM-GFP. […] The cells were analyzed on a FACSCalibur instrument (BD Biosciences, San Jose, Calif.) and the data was processed using FlowJo software.

Assay [4] relates to PN7 pancreatic tumor cells. The assay can be described thus: PN7 pancreatic tumor xenograft growth in NOD/SCID mice. It counts as in vivo. The procedure: Dissociated PN7 pancreatic tumor cells (1×10^5cells) were injected subcutaneously into the flanks of 6-8 week old NOD/SCID mice. Tumors were allowed to grow for 25 days until they reached an average volume of 130 mm^3. The mice were randomized (n=10 per group) and treated with anti-RSPO2 antibody 130M23, anti-FZD antibody 18R5, gemcitabine, a combination of 130M23 and gemcitabine, a combination of 18R5 and gemcitabine, a combination of 130M23 and 18R5, a combination of 130M23, 18R5 and gemcitabine, or control antibody 1B7.11. Anti-RSPO2 antibody 130M23 was dosed at 10 mg/kg once a week, anti-FZD antibody 18R5 was dosed at 20 mg/kg once a week, and gemcitabine was dosed at […] once a week. Administration of the antibodies and gemcitabine was performed via injection into the intraperitoneal cavity. Tumor growth was monitored and tumor volumes were measured with electronic calipers at specific time points. Data are expressed as mean±S.E.M. A parallel set of experiments included mice treated with a FZD8-Fc soluble receptor (10 mg/kg) in combination with gemcitabine and FZD8-Fc in combination with 130M23 and gemcitabine.

Assay [5] has as its system PN31 pancreatic tumor cells. The assay can be described thus: PN31 pancreatic tumor xenograft growth in NOD/SCID mice. It is filed as in vivo. As to conditions: antibodies 15 mg/kg once a week, intraperitoneal. The procedure:
Dissociated PN31 pancreatic tumor cells (1×10^5cells) were injected subcutaneously into the flanks of 6-8 week old NOD/SCID mice. Tumors were allowed to grow for 61 days until they reached an average volume of 120 mm^3. The mice were randomized (n=10 per group) and treated with anti-RSPO1 antibody 89M5, anti-RSPO2 antibody 130M23, gemcitabine, a combination of 89M5 and gemcitabine, a combination of 130M23 and gemcitabine, or control antibody 1B7.11. Antibodies were dosed at 15 mg/kg once a week, and gemcitabine was dosed at […] once a week. Administration of the antibodies and gemcitabine was performed via injection into the intraperitoneal cavity. Tumor growth was monitored and tumor volumes were measured with electronic calipers at specific time points. Data are expressed as mean±S.E.M.

In another assay the target is T2, binding of RSPO2 to LGR5 (Homo sapiens, UniProt Q6UXX9).
T2 construct: full-length human RSPO1, RSPO2, RSPO3 and RSPO4 were ligated in-frame to a human Fc region; made in house; host or cells: RSPO2-Fc: insect cells (baculovirus); LGR5 construct: transiently transfected HEK-293
T2 sequence (Q6UXX9 22-243 L186P): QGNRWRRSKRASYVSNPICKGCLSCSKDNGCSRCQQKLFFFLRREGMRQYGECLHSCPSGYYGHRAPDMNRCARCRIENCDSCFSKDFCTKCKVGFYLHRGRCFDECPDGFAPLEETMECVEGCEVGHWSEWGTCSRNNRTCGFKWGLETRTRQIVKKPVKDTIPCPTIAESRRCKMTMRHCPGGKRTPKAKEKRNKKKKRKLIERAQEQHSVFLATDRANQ
The assay can be described thus: FACS: blocking of soluble RSPO2-Fc binding to LGR5 on HEK-293 cells. As to conditions: RSPO2-Fc 10 μg/ml. The procedure:
HEK-293 cells were transiently transfected with the FLAG-LGR5-CD4TM-GFP construct (previously described in Example 2). After 48 hours, transfected cells were suspended in ice cold PBS containing 2% FBS and heparin and incubated on ice in the presence of RSPO2-Fc protein (10 μg/ml) and antibodies 130M23, 130M24, 130M25, 130M26, 130M27, and 130M28. A second incubation with 100 μl PE-conjugated anti-human Fc secondary antibody was performed to detect cells bound by the RSPO2-Fc fusion protein. The cells were analyzed on a FACSCalibur instrument (BD Biosciences, San Jose, Calif.) and the data was processed using FlowJo software.
A general note: Flow cytometry measures light scatter and fluorescence of single cells or particles in a stream.

In assay [6] the target is T1, human RSPO2. The assay can be described thus: FACS binding of 130M23 and humanized 130M23 to HEK293 cells expressing FLAG-RSPO2furin-CD4TM-GFP. As to conditions: five-fold serial dilutions. The procedure: HEK293 cells were transiently transfected with an expression vector encoding FLAG-RSPO2furin-CD4TM-GFP. As described in Example 11, FLAG-RSPO2furin-CD4TM-GFP is a chimeric fusion protein enabling cell surface expression of the N-terminal furin-like domains of human RSPO2. FLAG-RSPO2furin-CD4TM-GFP transfected cells were incubated in the presence of anti-RSPO2 antibody 130M23 or humanized anti-RSPO2 antibody […]. Five-fold serial dilutions of each antibody were examined for their ability to bind to the RSPO2 expressing cells. The cells were stained with Phycoerythrin conjugated anti-IgG to reveal bound antibody. The cells were analyzed on a FACSCalibur instrument (BD Biosciences, San Jose, Calif.) and the data was processed using FlowJo software.

B1: 130M23: anti-RSPO2 monoclonal antibody, hybridoma ATCC PTA-12021; variable regions SEQ ID NO:27 and SEQ ID NO:28 (antibody, V domains shown)
VH: EVKLVESGGGLVKPGGSLKFSCAASGFSFSSYAMSWVRQTPEKRLEWVASISSGGSTYYPDSVKGRFTISRDNVRNILYLQMSSLRSEDTAMYFCARGGDPGVYNGDYEDAMDYWGQGTSVTVSS
VL: DIVMTQSHKFMSTSVGDRVSITCKASQDVSSAVAWYQQKPGQSPKLLIYWASTRHTGVPDRFTNSGSGTDYTLTISSVQAEDLALYYCQQHYSTPWTFGGGTKLEIK
modifications: 130M23 Heavy chain variable region; 130M23 Light chain variable region
For B1, in the assay on PN7 tumors, the “tumorigenicity of cells isolated from treated mice” value was “greatly decreased tumorigenicity”. In assay [1], the “blocking of β-catenin signaling induced by RSPO3” value is “did not block”. In the assay on β-catenin signaling (increasing concentrations, 50 to 0.0006 μg/ml), the “induction of luciferase activity by lung tumor cell-conditioned medium and Wnt3a-conditioned medium” value is “reduced”. Further, the “potency relative to LGR5-Fc” value in the assay with β-catenin signaling (more potent than LGR5-Fc) was “greater than 100 fold”. Further, the “effect on RSPO2-induced β-catenin signaling” value in assay [2] is listed as “completely blocked”. Also, in the assay with human RSPO2 [3], the “binding to RSPO2 (FACS)” value is given as “bound”. Moreover, the “proliferation (anti-Ki67 antibody IHC)” value in assay [4] (PN7 tumors of treated mice) is recorded as “significant decrease in proliferation”. Further, the “morphology of PN7 tumors (IHC)” value in [4] (treated vs untreated mice) is “induced morphological changes”. Also, in [4] (vs control antibody, 130M23 10 mg/kg, 18R5 20 mg/kg, gemcitabine once a week, intraperitoneal), the “reduction in tumor growth” value was “approximately 55%”. Besides, in [5], the “effect on tumor growth as single agents” value was “only a minimal effect”. In the assay with binding of RSPO2 to LGR5, the “blocking of binding of RSPO2 to LGR5” value was “blocked”. Also, the “binding to human RSPO2 (FACS)” value with human RSPO2 [6] is recorded as “bind”.
